Assay results as given in paper PMC4963197, “Phosphorylation acts positively and negatively to regulate MRTF-A subcellular localisation and activity” (eLife, 2016).

Molecular target: G-actin (UniProt P68135)
Assay: size exclusion chromatography

MRTF-A(67–199) L74A; L78A
other: actins (apparent stoichiometry of G-actin binding): 2.2
